Data on 7 molecules can be found in US6409648, “Polynucleotides encoding TRF1 binding proteins” (The Regents of the University of California).

B3: Myc-Tin2 (Tin2 with a 13 aa c-Myc epitope at the N-terminus) (other, not shown: small tags and cut ends)
chain: MATPLVAGPAALRFAAAASWQVVRGRCVEHFPRVLEFLRSLRAVAPGLVRYRHHERLCMGLKAKVVVELILQGRPWAQVLKALNHHFPESGPIVRDPKATKQDLRKILEAQETFYQQVKQLSEAPVDLASKLQELEQEYGEPFLAAMEKLLFEYLCQLEKALPTPQAQQLQDVLSWMQPGVSITSSLAWRQYGVDMGWLLPECSVTDSVNLAEPMEQNPPQQQRLALHNPLPKAKPGTHLPQGPSSRTHPEPLAGRHFNLAPLGRRRVQSQWASTRGGHKERPTVMLFPFRNLGSPTQVISNPESKEEHAIYTADLAMGTRAPSNGKYKGPYQTLGGRALKENPVDLPATEQKE
notes: Made by in vitro translation (rabbit reticulocyte lysate, 35S-methionine) or expressed in HT1080 cells from a retrovirus

In data set [1] the target is T1, HA-Trf1 (Trf1 with a 10 aa hemagglutinin epitope at the N-terminus) (human, UniProt P54274 1-439).
T1 construct: In vitro translated (major 60 kD and minor about 40 kD products), or expressed in HT1080 cells
T1 sequence (looked up): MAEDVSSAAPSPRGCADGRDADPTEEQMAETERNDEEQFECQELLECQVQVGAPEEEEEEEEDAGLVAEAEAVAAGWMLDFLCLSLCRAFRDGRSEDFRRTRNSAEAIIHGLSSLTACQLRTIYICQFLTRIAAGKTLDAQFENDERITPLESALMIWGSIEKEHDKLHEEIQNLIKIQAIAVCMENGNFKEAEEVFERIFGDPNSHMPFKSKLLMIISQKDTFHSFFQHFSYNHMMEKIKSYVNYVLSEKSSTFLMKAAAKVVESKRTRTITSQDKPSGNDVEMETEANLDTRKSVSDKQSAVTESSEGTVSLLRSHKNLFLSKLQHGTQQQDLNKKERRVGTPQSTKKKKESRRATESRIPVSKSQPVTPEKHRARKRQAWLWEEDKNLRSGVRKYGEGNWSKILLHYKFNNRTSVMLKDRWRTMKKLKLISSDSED
The data set is described as follows: EMSA with nuclear extract of HA-Trf1 expressing cells and telomeric DNA probe.

Data set [2] concerns the target B3. Put plainly: co-immunoprecipitation with anti-GST of in vitro translated radiolabeled protein, SDS-PAGE.
Data set [3] deals with T1, HA-Trf1 (Trf1 with a 10 aa …). Put plainly: co-immunoprecipitation of mixed in vitro translation products, SDS-PAGE.
Data set [4] concerns the target T2, HA-tagged hTERT protein (human telomerase catalytic subunit) (human, UniProt O14746 1-1132).
T2 construct: Transiently expressed in Myc-Tin2-expressing cells; not shown: HA tag
Put plainly: co-immunoprecipitation from cells.

For data set [5], the target named is Trf1 (HA-Trf1, in vitro translated) (human, UniProt P54274 P54274:1-439). The data set is described as follows: EMSA; specific protein-DNA complex TT. The protocol: (§1) Nuclear extracts were prepared as described (Dimri et al., 1994), and dialyzed against 20 mM HEPES, pH 7.9, 100 mM KCl, 0.5 mM DTT, 0.5 mM PMSF. [TTAGGG]_6 and $[TTAGGG]13$ in pBluescript were excised, labeled using Klenow or PCR and gel purified. EMSA was performed as described (Zhong et al., 1992) in 20 ul containing 0–20 ug GST or GST-fusion proteins, 6–8 ug nuclear extract protein or 5 ul in vitro translation reaction, using a 30 min incubation at room temperature and 5% PAGE run with 1× Tris-borate-EDTA buffer.
This was true whether Tin2 was translated in vitro, purified from *E. coli* as a GST-fusion protein, or purified from baculovirus infected insect cells as a 6-histidine (6his)-tagged protein. […] In contrast, Trf1, whether translated in vitro or in nuclear extracts from HA-Trf1 overexpressing cells, formed a specific protein-DNA complex (Chong et al., 1995). Since Trf1 binds DNA as a homodimer (Bianchi et al., 1997), this complex was designated TT. To determine whether Tin2 interacts with this complex, WT or mutant GST-Tin2 proteins were added to nuclear extracts from HA-Trf1 expressing cells.

Data set [6] deals with T3, Trf1 (6his-Trf1) (human, UniProt P54274 P54274:1-439). The data set is described as follows: EMSA; single TT complex; probe not restated, taken as [TTAGGG]13. The conditions noted are these: tags: 6his, baculovirus/Sf9; chain copies: 2 (homodimer, stated). The protocol:
as §1
(§2) To determine the nature of TT-AAX, DNA complexes formed by purified proteins were examined. 6his-tagged Trf1 and Tin2 were produced and purified from baculovirus-infected cells. […] Moreover, 6his-Tin2, added in increasing amounts to 6his-Trf1 and probe, shifted all the TT to TT-AAX . Since 6his-Tin2 formed more TT-AAX than GST-Tin2, the GST moiety may reduce TT-AAX formation or stability. Nuclear extract had only a small effect on TT-AAX formation. […] Addition of 6his-Trf1 produced TT, and 6his-Tin2 shifted all the TT to TT-AAX. However, somewhat more TT-AAX was formed in the presence of nuclear extract than its absence. Thus, TT-AAX required only Trf1, Tin2 and telomeric DNA, but other nuclear proteins might enhance its formation or stability.

The target in data set [7] is T4, Trf1 + Tin2 complex (human, UniProt P54274;Q9BSI4-2 P54274:1-439,Q9BSI4-2:1-354). The data set is described as follows: EMSA; all TT shifted to TT-AAX; nuclear extract slightly enhances. The following applies: tags: 6his on both, baculovirus/Sf9; chain copies: 2 Trf1 + 2 Tin2 in TT-AA (stated as likely). The protocol:
as §1, §2

The target in data set [8] is T4, Trf1 + Tin2 complex. Put plainly: pulldown; probe pairing (6X-Tel/labeled Bi-6X-Tel) over Trf1 alone; 4-5 fold with unlabeled Bi-6X-Tel; abolished by excess unlabeled [TTAGGG]7. The following applies: tags: 6his on both, baculovirus/Sf9; chain copies: 2 Trf1 + 2 Tin2 in TT-AA (stated as likely); label: 32P (6X-Tel); 5' biotin (Bi-6X-Tel). As for the experimental part:
The 178 bp probe (6X-Tel) and the 126 bp probe (Bi-6X-Tel) were used either labeled or unlabeled. The probes were mixed together, incubated with purified 6his-proteins under optimized conditions, and Bi-6X-Tel probes were collected on streptavidin-agarose beads, as described below. […] Released labeled probes were identified by PAGE.
(§3) 6his-Trf1 (150 ng) and increasing amounts of 6his-Tin2 were incubated with a double stranded TTAGGG_6 probe, and protein-DNA complexes were analyzed by EMSA. Probes containing [TTAGGG]_6 and flanking sequences were synthesized by PCR. 6X-Tel was 178 bp, and labeled with ^32P (*). Bi-6X-Tel was 126 bp, biotinylated at a 5' end, and either labeled (*) or unlabeled. The 6X-Tel probe was incubated with labeled or unlabeled Bi-6X-Tel probe, and 6his-Trf1 (150 ng), 6his-Tin2 (60 ng), GST (100 ng), GST-Tin2–13 (100 ng) and/or 100 fold excess unlabeled [TTAGGG]_7, followed by incubation with streptavidin-agarose beads. The beads were collected, and components released and analyzed by PAGE. Signals were quantified using a phosphorimager and ImageQuant. Reaction mixtures were analyzed by EMSA.
In the absence of protein or presence of Tin 2 alone, virtually no 6X-Tel probe, and very little labeled Bi-6X-Tel was released. […] Trf1 alone increased the amount of both 6X-Tel and labeled Bi-6X-Tel that were released. […]

For data set [9], the target named is T3, Trf1 (6his-Trf1). The data set is described as follows: EMSA; TT plus minor TT**, TT*** and small amount of TT-AAX; Trf1 alone induces probe-probe pairing. The following applies: tags: 6his, baculovirus/Sf9; chain copies: 2 (homodimer, stated); label: 32P (6X-Tel); 5' biotin (Bi-6X-Tel). The protocol:
as §3
Under these optimized conditions, Trf1 alone formed a small amount of TT-AAX which was greatly stimulated by Tin2. Also under these conditions, Trf1 alone formed two minor complexes that are likely due to two (TT) and three (TT*) Trf1 homodimers loaded onto the probe (Bianchi et al., 1997). The Tin2–13 mutant supershifted all three TT complexes, as expected from its ability to bind Tfr1.

T2 sequence (O14746 whole entry): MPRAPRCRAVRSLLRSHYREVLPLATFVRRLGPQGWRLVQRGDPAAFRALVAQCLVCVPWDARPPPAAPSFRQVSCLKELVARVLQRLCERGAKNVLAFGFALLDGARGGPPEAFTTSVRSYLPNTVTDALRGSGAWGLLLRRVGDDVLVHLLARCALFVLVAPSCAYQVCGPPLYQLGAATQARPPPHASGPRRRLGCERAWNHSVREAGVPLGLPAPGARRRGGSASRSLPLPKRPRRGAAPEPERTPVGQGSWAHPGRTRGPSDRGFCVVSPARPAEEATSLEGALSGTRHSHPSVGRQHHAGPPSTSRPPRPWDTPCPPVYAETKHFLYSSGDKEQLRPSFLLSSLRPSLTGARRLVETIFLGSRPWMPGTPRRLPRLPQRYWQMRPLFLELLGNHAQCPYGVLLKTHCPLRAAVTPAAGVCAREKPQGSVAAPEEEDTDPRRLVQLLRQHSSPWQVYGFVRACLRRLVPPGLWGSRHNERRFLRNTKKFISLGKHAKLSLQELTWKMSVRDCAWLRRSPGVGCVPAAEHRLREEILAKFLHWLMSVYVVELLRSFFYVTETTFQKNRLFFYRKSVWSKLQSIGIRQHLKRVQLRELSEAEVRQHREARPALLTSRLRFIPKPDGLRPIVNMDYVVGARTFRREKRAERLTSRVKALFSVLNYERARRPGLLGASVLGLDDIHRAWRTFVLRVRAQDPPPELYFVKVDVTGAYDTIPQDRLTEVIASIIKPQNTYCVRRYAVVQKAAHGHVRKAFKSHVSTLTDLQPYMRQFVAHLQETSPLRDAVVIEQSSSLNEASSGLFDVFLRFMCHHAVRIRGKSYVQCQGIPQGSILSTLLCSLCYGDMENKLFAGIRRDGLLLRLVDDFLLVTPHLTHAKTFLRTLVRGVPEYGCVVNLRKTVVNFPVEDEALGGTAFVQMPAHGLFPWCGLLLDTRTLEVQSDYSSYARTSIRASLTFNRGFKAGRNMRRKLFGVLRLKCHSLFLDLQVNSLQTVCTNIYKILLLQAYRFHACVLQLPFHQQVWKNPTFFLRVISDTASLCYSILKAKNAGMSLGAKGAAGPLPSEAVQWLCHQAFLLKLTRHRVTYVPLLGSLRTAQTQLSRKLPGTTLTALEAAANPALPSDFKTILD

B1: GST-Tin2-14 (Tin2 with C-terminal deletion of aa 276-354, fused to GST) (other)
chain: MATPLVAGPAALRFAAAASWQVVRGRCVEHFPRVLEFLRSLRAVAPGLVRYRHHERLCMGLKAKVVVELILQGRPWAQVLKALNHHFPESGPIVRDPKATKQDLRKILEAQETFYQQVKQLSEAPVDLASKLQELEQEYGEPFLAAMEKLLFEYLCQLEKALPTPQAQQLQDVLSWMQPGVSITSSLAWRQYGVDMGWLLPECSVTDSVNLAEPMEQNPPQQQRLALHNPLPKAKPGTHLPQGPSSRTHPEPLAGRHFNLAPLGRRRVQSQWAST
notes: not shown: GST carrier at the N end (vector pGex4X-1, Pharmacia) and its vector linker
On to B1, for which, in [1], the binding result is “binds”.

B2: GST-Tin2 (wild-type Tin2 with glutathione-S-transferase linked to the N-terminus) (other)
chain: MATPLVAGPAALRFAAAASWQVVRGRCVEHFPRVLEFLRSLRAVAPGLVRYRHHERLCMGLKAKVVVELILQGRPWAQVLKALNHHFPESGPIVRDPKATKQDLRKILEAQETFYQQVKQLSEAPVDLASKLQELEQEYGEPFLAAMEKLLFEYLCQLEKALPTPQAQQLQDVLSWMQPGVSITSSLAWRQYGVDMGWLLPECSVTDSVNLAEPMEQNPPQQQRLALHNPLPKAKPGTHLPQGPSSRTHPEPLAGRHFNLAPLGRRRVQSQWASTRGGHKERPTVMLFPFRNLGSPTQVISNPESKEEHAIYTADLAMGTRAPSNGKYKGPYQTLGGRALKENPVDLPATEQKE
notes: also called Wild-type GST-Tin2; WT GST-Tin2; not shown: glutathione-S-transferase (GST) encoded by vector pGex4X-1 (Pharmacia), linked to the N-terminus; linker residues not gi
For the molecule B2, the binding result in data set [2] is reported as “no binding”; in data set [1] it was “binds”.

As to B3, the binding result in data set [3] is “binds”; in data set [4], “no binding”.

B4: [TTAGGG]13 double-stranded telomeric probe (dsDNA)
DNA 1: TTAGGGTTAGGGTTAGGGTTAGGGTTAGGGTTAGGGTTAGGGTTAGGGTTAGGGTTAGGGTTAGGGTTAGGGTTAGGG
DNA 2: CCCTAACCCTAACCCTAACCCTAACCCTAACCCTAACCCTAACCCTAACCCTAACCCTAACCCTAACCCTAACCCTAA
As to B4, the binding result in [5], in [6] and in [7] was “binds” in each case.

B5: [TTAGGG]6 probes with flanks (6X-Tel 178 bp, Bi-6X-Tel 126 bp) (dsDNA)
DNA 1: TTAGGGTTAGGGTTAGGGTTAGGGTTAGGGTTAGGG
DNA 2: CCCTAACCCTAACCCTAACCCTAACCCTAACCCTAA
As to B5, the binding result in data set [8] and in [9] was “binds” throughout.

B6: GST-Tin2-15 (N-terminal fragment aa 1-196 of Tin2, fused to GST) (other)
chain: MATPLVAGPAALRFAAAASWQVVRGRCVEHFPRVLEFLRSLRAVAPGLVRYRHHERLCMGLKAKVVVELILQGRPWAQVLKALNHHFPESGPIVRDPKATKQDLRKILEAQETFYQQVKQLSEAPVDLASKLQELEQEYGEPFLAAMEKLLFEYLCQLEKALPTPQAQQLQDVLSWMQPGVSITSSLAWRQYGVDM
notes: not shown: glutathione-S-transferase (GST) encoded by vector pGex4X-1 (Pharmacia)
Regarding B6, the binding result in data set [1] is “no binding”.

B7: GST-Tin2-12 (Tin2 with N-terminal deletion of aa 1-120, fused to GST) (other)
chain: LSEAPVDLASKLQELEQEYGEPFLAAMEKLLFEYLCQLEKALPTPQAQQLQDVLSWMQPGVSITSSLAWRQYGVDMGWLLPECSVTDSVNLAEPMEQNPPQQQRLALHNPLPKAKPGTHLPQGPSSRTHPEPLAGRHFNLAPLGRRRVQSQWASTRGGHKERPTVMLFPFRNLGSPTQVISNPESKEEHAIYTADLAMGTRAPSNGKYKGPYQTLGGRALKENPVDLPATEQKE
notes: as for B1
As to B7, the binding result in data set [1] is listed as “binds”.
